# Source: patent US20220306744A1 (CRESCENDO BIOLOGICS, published 2022)
# Target: T1, human PD-1 expressed on cells (CHO TREX human PD1 cell line, full-length human PD-1 sequence) (human, UniProt Q15116 21-288)
# T1 construct: Also used for human PD-1 on Jurkat reporter cells, on PathHunter cells and on PHA-stimulated human CD4+ T cells; also called CHO human PD1 cells; CHO human PD-1 cells
# Test: worded summary of the screens
# T1 sequence (Q15116 21-288): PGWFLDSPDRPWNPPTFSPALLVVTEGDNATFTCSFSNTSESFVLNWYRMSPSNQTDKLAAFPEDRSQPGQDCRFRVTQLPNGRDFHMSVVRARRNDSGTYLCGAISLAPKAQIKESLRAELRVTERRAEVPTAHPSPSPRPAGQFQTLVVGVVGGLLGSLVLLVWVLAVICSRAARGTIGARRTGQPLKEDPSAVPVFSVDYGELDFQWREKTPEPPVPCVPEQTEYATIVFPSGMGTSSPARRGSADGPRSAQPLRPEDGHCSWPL
row,Binder,binding result
1,1.48b (VHH) VHH: QVQLVESGGGLVKPGGSLRLSCAASGFTFSDSSMTWMRQAPGKGLEWVSYISSGGGVKFYADSVKGRFTISRDNAKNSLYLQMNSLRADDTAVYYCAREAPLRLGESPHDAFDIWGQGTMVTVSS,binds
2,"1.64b (VHH, also called Humabody 1.64b) VHH: EVQLVESGGGLVKPGGSLRLSCAASGFTFSDSSMTWMRQAPGKGLEWVSYISSGGGVKFYADSVKGRFTISRDNAKNSLYLQMNSLRADDTAVYYCAREAPLRLGESPHDAFDISGQGTMVTVSS",binds
3,1.60b (VHH) VHH: QVQLVESGGGLVKPGGSLRLSCAASGFTFSDNSMTWMRQAPGKGLEWVSYISTGGGVKYYADSVKGRFTISRDNAKNSLYLQMNSLRADDTAVYYCAREAPLRLGESPHDAFDIWGQGTMVTVSS,binds
4,1.79b (VHH) VHH: EVQLVESGGGLVKPGGSLRLSCAASGFTFSDSSMTWKRQAPGKGLEWVSYISSGGGVKFYADSVKGRFTISRDNAKNSLYLQMNSLRAEDTAVYYCAREAPLRLGESPHDAFDISGQGTMVTVSS,binds
5,1.51b (VHH) VHH: QVQLVESGGGLVKPGGSLRLSCAASGFTFSDSSMTWMRQAPGKGLEWVSYISSGGAVKFYTDSVKGRFTISRDNAKNSLYLQMNSLRADDTAVYYCAREAPLRLGESPHDAFDIWGQGTMVTVSS,binds
6,1.73b (VHH) VHH: QVQLVESGGGLVKPGGSLRLSCAATGFTFSDSSMTWMRQAPGKGLEWVSYISAGGGVRFYTDSVKGRFTISRDNAKNSLYLQMNSLRADDTAVYYCAREAPLRLGESPHDAFDISGQGTMVTVSS,binds
7,1.69b (VHH) VHH: QVQLVESGGGLVKPGGSLRLSCAASGFTFSDNSMSWMRQAPGKGLEWVSYISSGGGVIFYADSVKGRFTISRDNAKNSLYLQMNSLRADDTAVYYCAREAPLRLGESPHDAFDISGQGTMVTVSS,binds
8,1.50b (VHH) VHH: QVQLVESGGGLVKPGGSLRLSCAASGFTFSDNSMTWMRQAPGKGLEWVSYISSGGTIKFYADSVKGRFTISRDNAKNSLYLQMNSLRADDTAVYYCAREAPLRLGESPHDAFDIWGQGTMVTVSS,binds
9,1.66b (VHH) VHH: QVQLVESGGGLVKPGGSLRLSCAASGFTFSDSSMTWMRQAPGKGLEWVSYISSGGGVKFYTDSVKGRFTISRDNAKNSLYLQMDSLRADDTAVYYCAREAPLRLGESPHDAFDTSGQGTMVTVSS,binds
10,1.55b (VHH) VHH: QVQLVESGGGLVKPGGSLRLSCAASGFTFSDNSMTWMRQAPGKGLEWVSYISSGGGVKFYADSVKGRFTISRDNAKNSLYLQMNSLRADDTAVYYCAREAPLRLGESPHDAFDISGQGTMVTVSS,binds
11,1.58b (VHH) VHH: QVQLVESGGGLVKPGGSLRLSCAASGFTFSDNTMTWMRQAPGKGLEWVSYISTGGGVKFYADSVKGRFTISRDNAKNSLYLQMNSLRADDTAVYYCAREAPLRLGESPHDAFDIWGQGTMVTVSS,binds
12,1.63b (VHH) VHH: EVQLVESGGGLVKPGGSLRLSCAASGFTFSDSSMTWMRQAPGKGLEWVSYISSGGGVKFYTDSVKGRFTISRDNAKNSLYLQMNSLRADDTAVYYCAREAPLRLGESPHDAFDISGQGTMVTVSS,binds
13,1.54b (VHH) VHH: QVQLVESGGGLVKPGGSLRLSCAASGFTFSDDSMTWMRQAPGKGLEWVSYISSGGGVIFYADSVKGRFTISRDNAKNSLYLQMNSLRADDTAVYYCAREAPLRLGESPHDAFDIWGQGTMVTVSS,binds
14,1.75b (VHH) VHH: EVQLVESGGGLVKPGGSLRLSCAASGFTFSDSSMTWIRQAPGKGLEWVSYISSGGGVKFYTDSVKGRFTISRDNAKNSLYLQMNSLRAEDTAVYYCAREAPLRLGESPHDAFDISGQGTMVTVSS,binds
15,1.52b (VHH) VHH: QVQLVESGGGLVKPGGSLRLSCAASGFTFSDNSMTWMRQAPGKGLEWVSYISSGGGVKYYADSVKGRFTISRDNAKNSLYLQMNSLRADDTAVYYCAREAPLRLGESPHDAFDIWGQGTMVTVSS,binds
16,1.67b (VHH) VHH: QVQLVESGGGLVKPGGSLRLSCAASGFTFSGSSMTWMRQAPGKGLEWVSYISSGGGVIFYADSVKGRFTISRDNAKNSLYLQMNSLRADDTAVYYCAREAPLRLGESPHDAFDISGQGTMVTVSS,binds

row,Binder,binding result
1,1.76b (VHH) VHH: EVQLVESGGGLVKPGGSLRLSCAASGFTFSDSSMTWIRQAPGKGLEWVSYISSGGGVKFYADSVKGRFTISRDNAKNSLYLQMNSLRADDTAVYYCAREAPLRLGESPHDAFDISGQGTMVTVSS,binds
2,1.74b (VHH) VHH: EVQLVESGGGLVKPGGSLRLSCAASGFTFSDSSMTWIRQAPGKGLEWVSYISSGGGVKFYTDSVKGRFTISRDNAKNSLYLQMNSLRADDTAVYYCAREAPLRLGESPHDAFDISGQGTMVTVSS,binds
3,1.78b (VHH) VHH: EVQLVESGGGLVKPGGSLRLSCAASGFTFSDSSMTWIRQAPGKGLEWVSYISSGGGVKFYADSVKGRFTISRDNAKNSLYLQMNSLRAEDTAVYYCAREAPLRLGESPHDAFDISGQGTMVTVSS,binds
4,1.49b (VHH) VHH: QVQLVESGGGLVKPGGSLRLSCAASGFTFSDSSMSWMRQAPGKGLEWVSYISTGGGVKFYADSVKGRFTISRDNAKNSLYLQMNSLRADDTAVYYCAREAPLRLGESPHDAFDIWGQGTMVTVSS,binds
5,1.56b (VHH) VHH: QVQLVESGGGLVKPGGSLRLSCAASGFTFSDNSMTWMRQAPGKGLEWVSYISSGGAVKFYADSVKGRFTISRDNAKNSLYLQMNSLRADDTAVYYCAREAPLRLGESPHDAFDILGQGTMVTVSS,binds
6,1.71b (VHH) VHH: QVQLVESGGGLVKPGGSLRLSCAASGFTFGGSSMTWMRQAPGKGLEWVSYISSGGGVKFYTDSVKGRFTISRDNAKNSLYLQMNSLRADDTAVYYCAREAPLRLGESPHDAFDISGQGTMVTVSS,binds
7,1.68b (VHH) VHH: QVQLVESGGGLVKPGGSLRLSCAASGFTFGDNSMTWMRQAPGKGLEWVSYISSGGGVIFYADSVKGRFTISRDNAKNSLYLQMNSLRADDTAVYYCAREAPLRLGESPHDAFDISGRGTTVTVSS,binds
8,1.70b (VHH) VHH: QVQLVESGGGLVKPGGSLRLSCAASGFTFGDSSMTWMRQAPGKGLEWVSYISSGGAVKFYTDSVKGRFTISRDNAKNSLYLQMNSLRADDTAVYYCAREAPLRLGESPHDAFDISGQGTMVTVSS,binds
9,"1.77b (VHH, also called Humabody 1.77b) VHH: EVQLVESGGGLVKPGGSLRLSCAASGFTFSDSSMTWMRQAPGKGLEWVSYISSGGGVKFYTDSVKGRFTISRDNAKNSLYLQMNSLRAEDTAVYYCAREAPLRLGESPHDAFDISGQGTMVTVSS",binds
10,1.62b (VHH) VHH: QVQLVESGGGLVKPGGSLRLSCAASGFTFSDSSMTWMRQAPGKGLEWVSYISSGGAVKFYTDSVKGRFTISRDNAKNSLYLQMNSLRADDTAVYYCAREAPLRLGESPHDAFDISGQGTMVTVSS,binds
11,1.53b (VHH) VHH: QVQLVESGGGLVKPGGSLRLSCAASGFTFSDNSMTWMRQAPGKGLEWVSYISSGGSVKFYADSVKGRFTISRDNAKNSLYLQMNSLRADDTAVYYCAREAPLRLGESPHDAFDIWGQGTMVTVSS,binds
12,1.59b (VHH) VHH: QVQLVESGGGLVKPGGSLRLSCAASGFTFSDNSMSWMRQAPGKGLEWVSYISSGGSVKFYADSVKGRFTISRDNAKNSLYLQMNSLRADDTAVYYCAREAPLRLGESPHDAFDIWGQGTMVTVSS,binds
13,1.72b (VHH) VHH: QVQLVESGGGLVKPGGSLRLSCAASGFTFSDSSMSWMRQAPGKGLEWVSYISSGGGVIFYADSVKGRFTISRDNAKNSLYLQMNSLRADDTAVYYCAREAPLRLGESPHDAFDISGQGTMVTVSS,binds
14,1.80b (VHH) VHH: EVQLVESGGGLVKPGGSLRLSCAASGFTFSDSSMTWMRQAPGKGLEWVSYISSGGGVKFYADSVKGRFTISRDNAKNSLYLQMNSLRAEDTAVYYCAREAPLRLGESPHDAFDISGQGTMVTVSS,binds
15,1.65b (VHH) VHH: QVQLVESGGGLVKPGGSLRLSCAASGFTFSDSSMTWMRQAPGKGLEWVSYISSGGGVKFYADSVKGRFTISRDNAKNSLYLQMNSLRADDTAVYYCAREAPLRLGESPHDAFDISGQGTMVTVSS,binds
16,1.81b (VHH) VHH: EVQLVESGGGLVKPGGSLRLSCAASGFTFSDSSMTWVRQAPGKGLEWVSYISSGGGVKFYADSVKGRFTISRDNAKNSLYLQMNSLRAEDTAVYYCAREAPLRLGESPHDAFDISGQGTMVTVSS,binds
